Assay results published in patent publication US20090074766A1, “Methods of inhibiting HIV-2 infection” (priority 2007, published 2009).
Several values for one entry are separate records, joined by “and”; a condition that tells them apart may be missing. Identical values can stand only once.

Experiments:
[1] = system: HIV-1; conditions: treatment period of 10-14 days, dose-dependent; cited from earlier work
[2] = system: R5 HIV-2 A2267; assay: Inhibition of replication in PBMC cultures, RT activity readout: HIV-2 A2267; assay type: cell-based
Experimental: (§1) Viruses: All virus isolates were grown and titered exclusively in stimulated PBMC as described previously. […] The HIV-2 isolates used in this study have been previously described (Owen, S. M., Ellenberger, D., Rayfield, M., Wiktor, S., Michel, P., Grieco, M. H., Gao, F., Hahn, B. H., and Lai, R. B. 1998. Genetically Divergent Strains of Human Immunodeficiency Virus Type 2 Use Multiple Coreceptors for Entry. J Virol 72:5425-5432) and were obtained from the NIH AIDS Research and Reference Reagent Program.
(§2) PA14 (Lot # DF-021204) was produced for reagent use in the Research & Development laboratories of Progenics Pharmaceuticals Inc.
(§3) Inhibition of HIV-1 and HIV-2 replication in PBMC cultures: PBMC were isolated from 34 healthy blood donors with Ficoll-Hypaque (all media from Cellgro, Herndon, Va.) and depleted of CD8+ cells using RosetteSep CD8 depletion cocktail (StemCell Technologies) according to the manufacturer's instructions. Equal numbers of cells from each donor were then separately stimulated with 5 ug phytohemagglutinin/ml (Sigma, St. Louis, Mo.) or with surface-immobilized anti-CD3 antibody OKT3 in RPMI 1640 medium containing 10% fetal calf serum, 100 Units of interleukin-2/ml (NIH AIDS Research and Reference Reagent Program), glutamine, and antibiotics (PBMC culture medium) as previously described. After 72 hours, equal numbers of PBMC stimulated by one of these two methods from each donor were combined for use in infection assays as follows. […] The virus inoculum was adjusted to 400 to 2,000 times the TCID50 per ml in PBMC culture medium, and a 50-ul aliquot was added to each culture. The inhibitory doses refer to the concentrations of the agents present at this point in the culture, when virus, cells, and inhibitors were all present at their final concentrations. Reverse Transcriptase (RT) activity was measured on Day 7 post infection (pi) for HIV-1 and Day 10 pi for HIV-2 by the Reverse Transcriptase Assay, Colorimetric kit, #11 468 120 910, Roche (Switzerland) according to the manufacturer's instructions with the following exception: neither ultracentrifugation nor PEG precipitation of the culture supernatants was performed before viral lysis.
(§4) The inhibition data were analyzed using GraphPad Prism software (GraphPad Software, San Diego, Calif.). A 4-parameter logistic fit was used calculate the concentration of inhibitor that afforded a 50% and a 90% reduction in RT activity. […] The % inhibitions where best-fit curve reached a top plateau, also as calculated by GraphPad Prism software, are reported as well as maximum percent inhibition (MPI). […] Inhibition curves with a poor sigmoid fit (R^2<0.7) were excluded from data analysis.

[3] = system: HIV-1JR-CSF; assay: hu-PBL SCID mouse model infected with HIV-1JR-CSF (FIG. 5); assay type: in vivo; conditions: multiple doses after steady state viral levels, FIG. 5 legend
Experimental: SCID mice were reconstituted with normal human peripheral blood mononuclear cells and infected 2 weeks later with HIV-1JR-CSF. Multiple doses of PRO 140 were administered following attainment of steady state viral levels. Plasma viral loads pre- and post-injection are indicated.

[4] = system: HIV-1 JR-FL; assay: Previous studies (300-TD-028): HIV-1 replication in PBMC quantitated by p24 ELISA, JR-FL; assay type: cell-based
Experimental: The EC values were measured by p24 ELISA in previous studies, according to published methods. Because the p24 ELISA cannot efficiently quantitate p24 from the HIV-2 isolates used in this study, a commercial ELISA that measures reverse transcriptase was chosen as a readout for both the HIV-2 and HIV-1 infection assays in the present study.

[5] = system: R5X4 HIV-2 77618; assay: Inhibition of replication in PBMC cultures, RT activity readout: HIV-2 77618; assay type: cell-based
Experimental: as §1, §2, §3, §4

[6] = system: R5 HIV-2 310340; assay: Inhibition of replication in PBMC cultures, RT activity readout: HIV-2 310340; assay type: cell-based
Experimental: as §1, §2, §3, §4

[7] = system: viruses in PRO 140-treated subjects; assay: Phase 1b: virus susceptibility of subjects' viruses (PhenoSense Assay); assay type: cell-based, HIV-1
Source text: A non-limiting example of a widely used phenotypic HIV drug resistance test is the PhenoSense™ HIV assay, which measures the sensitivity of a virus to antiretroviral drugs.

[8] = individual assays (Source), previous study, p24 ELISA
[9] = previous studies n = 33, median

In the case of `COC[C@@H](c1ccc(C(F)(F)F)cc1)N1CCN(C2(C)CCN(C(=O)c3c(C)ncnc3C)CC2)C[C@@H]1C` [SCH-D, 1-[(4,6-dimethyl-5-pyrimidinyl)carbonyl]-4-[4-[2-methoxy-1(R)-4-(trifluoromethyl)phenyl]ethyl-3(S)-methyl-1-piperazinyl]-4-methylpiperidine], the “mean reductions in HIV-1 RNA levels” value [1] is listed as about 1 log10.

B1: PRO 140: humanized IgG4,κ anti-CCR5 monoclonal antibody, humanized version of murine mAb PA14 (antibody, chains of the INN, looked up, V domains shown)
VH: EVQLVESGGGLVKPGGSLRLSCAASGYTFSNYWIGWVRQAPGKGLEWIGDIYPGGNYIRNNEKFKDKTTLSADTSKNTAYLQMNSLKTEDTAVYYCGSSFGSNYVFAWFTYWGQGTLVTVSS
VL: DIVMTQSPLSLPVTPGEPASISCRSSQRLLSSYGHTYLHWYLQKPGQSPQLLIYEVSNRFSGVPDRFSGSGSGTDFTLKISRVEAEDVGVYYCSQSTHVPLTFGQGTKVEIK
For B1, the “EC50 (median)” value ([2]; HIV-2 A2267, R5) was 0.10 mg/L, the “EC90 (median)” value ([2]; HIV-2 A2267, R5) was 98 mg/L and the “MPI (maximum percent inhibition)” value ([2]; R5 HIV-2 A2267, individual assays (Source)) was 97% and 115% and 88% and 94% and 75%. The “MPI, Median” value ([2]; R5 HIV-2 A2267, median of assays with R^2 >= 0.7) was 94%, the “control of viral replication in HIV-1-infected mice” value [3] was “provides prolonged control of viral replication” and the EC50 [4, 8] was 0.37 mg/L and 0.003 mg/L and 0.03 mg/L and 0.28 mg/L and 0.13 mg/L and 0.05 mg/L and 0.97 mg/L and 0.39 mg/L and <0.001 mg/L and 0.001 mg/L and 1.8 mg/L and 0.24 mg/L and 0.14 mg/L and 0.58 mg/L and 0.45 mg/L and 0.06 mg/L and 0.72 mg/L and 1.9 mg/L and 0.61 mg/L and 0.69 mg/L and 0.12 mg/L and 0.02 mg/L and 2.7 mg/L and 0.48 mg/L and 0.04 mg/L and <0.1 mg/L and 0.43 mg/L. The EC90 [4, 8] was 3.4 mg/L and 0.01 mg/L and 18 mg/L and 5.4 mg/L and 2.2 mg/L and 3.1 mg/L and 12 mg/L and 0.02 mg/L and <0.001 mg/L and 0.13 mg/L and 0.52 mg/L and >50 mg/L and 0.93 mg/L and 5.8 mg/L and 8.1 mg/L and 8.2 mg/L and 2.1 mg/L and 10 mg/L and 11 mg/L and 0.22 mg/L and 3.7 mg/L and 22 mg/L and 1.2 mg/L and 34 mg/L, the “EC50 (mean)” value ([4]; previous studies n = 33, mean) was under 0.41 mg/L and the “EC90 (mean)” value ([4]; previous studies n = 33, mean) was over 10 mg/L. For the same molecule, the “EC50 (median)” value [4, 9] was 0.13 mg/L, the “EC90 (median)” value [4, 9] was 3.4 mg/L and the “EC50 (median)” value ([5]; HIV-2 77618, R5X4) was over 100 mg/L. For the same molecule, the “EC90 (median)” value ([5]; HIV-2 77618, R5X4) was over 100 mg/L, the “MPI: Maximum percent inhibition as determined from the plateau of the sigmoidal curve fit” value ([5]; Virus: R5X4 HIV-2 77618, individual experiments (Source)) was 6% and −2% and the “MPI, Median” value ([5]; Virus: R5X4 HIV-2 77618, median of experiments) was 2%. The “EC50 (median)” value ([6]; HIV-2 310340, R5) was 4.7 mg/L, the “EC90 (median)” value ([6]; HIV-2 310340, R5) was over 100 mg/L and the “MPI: Maximum percent inhibition as determined from the plateau of the sigmoidal curve fit” value ([6]; Virus: R5 HIV-2 310340, individual experiments (Source)) was 87% and 74% and 90% and 78%. The “MPI, Median” value ([6]; Virus: R5 HIV-2 310340, median of experiments, poor curve fits (R^2 < 0.7) excluded) was 83%, the “change in rIC50 post-treatment” value ([7]; all subjects) was “Less than 2 fold” and the “Mean Maximum Percent Inhibition (MPI)” value ([7]; baseline) was 99% (range: 93-100%). For the same molecule, the “Mean rIC50” value ([7]; baseline) was 2.0 (range: 0.83-5.1), the “Mean MPI” value ([7]; post-treatment) was 99% (range: 93-100%) and the “Mean rIC50” value ([7]; post-treatment) was 2.1 (range: 0.98-4.71).
